{
  "source": "patent US20190040115A1",
  "about": "(IMMATICS BIOTECHNOLOGIES, published 2019)",
  "data": [
    {"molecular_target": "T1, HLA-A*02:01 (human)", "T1 construct": "captured on streptavidin plates; also called peptide-receptive MHC molecules", "assay": "UV peptide exchange ELISA (anti-b2m); yield grade: + >10%, ++ >20%, +++ >50, ++++ >75%", "procedure,_shortened": "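Binding capacity assessed as exchange yield: only peptides that stabilize peptide-receptive HLA-A*02:01 prevent complex dissociation after UV cleavage of the conditional ligand. Intact complexes were detected via β2m by ELISA.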", "units": {"peptide exchange yield": "%"}, "values": [
      {"binder": "TTLGGFAKV", "peptide exchange yield": "20 to 50"},
      {"binder": "ILPEAQDYFL", "peptide exchange yield": "> 75"},
      {"binder": "SLVAILHLL", "peptide exchange yield": "50 to 75"},
      {"binder": "QLYNQIIKL", "peptide exchange yield": "> 75"},
      {"binder": "EVISKLYAV", "peptide exchange yield": "50 to 75"},
      {"binder": "VMFEYGMRL", "peptide exchange yield": "> 75"},
      {"binder": "KMVGDVTGA", "peptide exchange yield": "50 to 75"},
      {"binder": "SLYSYFQKV", "peptide exchange yield": "> 75"},
      {"binder": "VMSSTLYTV", "peptide exchange yield": "> 75"},
      {"binder": "ILDDVAMVL", "peptide exchange yield": "50 to 75"},
      {"binder": "VLYNESLQL", "peptide exchange yield": "> 75"},
      {"binder": "VLMEMSYRL", "peptide exchange yield": "50 to 75"},
      {"binder": "KIEDLIKYL", "peptide exchange yield": "50 to 75"},
      {"binder": "LLDDPTNAHFI", "peptide exchange yield": "50 to 75"},
      {"binder": "KLGFGTGVNVYL", "peptide exchange yield": "> 75"},
      {"binder": "YLINFEIRSL", "peptide exchange yield": "> 75"},
      {"binder": "SLLPTEQPRL", "peptide exchange yield": "50 to 75"},
      {"binder": "LLEPFVHQV", "peptide exchange yield": "> 75"},
      {"binder": "ILDEEKFNV", "peptide exchange yield": "50 to 75"},
      {"binder": "FLETNVPLL", "peptide exchange yield": "50 to 75"},
      {"binder": "HLDEARTLL", "peptide exchange yield": "> 75"},
      {"binder": "KTWDQVPFSV", "peptide exchange yield": "> 75"},
      {"binder": "FLGDPPPGL", "peptide exchange yield": "50 to 75"},
      {"binder": "ILDEPTNHL", "peptide exchange yield": "20 to 50"},
      {"binder": "ILGDWSIQV", "peptide exchange yield": "> 75"},
      {"binder": "GLDIITNKV", "peptide exchange yield": "50 to 75"},
      {"binder": "IIDDVMKEL", "peptide exchange yield": "20 to 50"},
      {"binder": "FLDSEVSEL", "peptide exchange yield": "50 to 75"},
      {"binder": "SLGPIMLTKI", "peptide exchange yield": "20 to 50"},
      {"binder": "LIDKIIEYL", "peptide exchange yield": "20 to 50"},
      {"binder": "FIDPEQIQV", "peptide exchange yield": "50 to 75"},
      {"binder": "FLYTYIAKV", "peptide exchange yield": "50 to 75"},
      {"binder": "SIDDSDPIV", "peptide exchange yield": "10 to 20"},
      {"binder": "LLDSGAFHL", "peptide exchange yield": "50 to 75"},
      {"binder": "FVYGEPREL", "peptide exchange yield": "50 to 75"},
      {"binder": "VLKADVVLL", "peptide exchange yield": "20 to 50"},
      {"binder": "GLDSGFHSV", "peptide exchange yield": "> 75"},
      {"binder": "ALADLQEAV", "peptide exchange yield": "> 75"},
      {"binder": "ALDSDPVGL", "peptide exchange yield": "50 to 75"},
      {"binder": "ILDELVKSL", "peptide exchange yield": "50 to 75"},
      {"binder": "ALLSQDFEL", "peptide exchange yield": "> 75"},
      {"binder": "NLDKLYHGL", "peptide exchange yield": "10 to 20"},
      {"binder": "ALPPPPASI", "peptide exchange yield": "50 to 75"},
      {"binder": "TLKEYLESL", "peptide exchange yield": "50 to 75"},
      {"binder": "KILPDLNTV", "peptide exchange yield": "> 75"},
      {"binder": "VLFGAVITGA", "peptide exchange yield": "> 75"},
      {"binder": "VLFKDPVSV", "peptide exchange yield": "> 75"},
      {"binder": "VLFPMDLAL", "peptide exchange yield": "50 to 75"},
      {"binder": "STLHLVLRL", "peptide exchange yield": "50 to 75"},
      {"binder": "KVPEIEVTV", "peptide exchange yield": "> 75"},
      {"binder": "NLDYAILKL", "peptide exchange yield": "10 to 20"},
      {"binder": "FLLEQEKTQAL", "peptide exchange yield": "> 75"},
      {"binder": "IVDNTTMQL", "peptide exchange yield": "50 to 75"},
      {"binder": "SVNGFISTL", "peptide exchange yield": "20 to 50"},
      {"binder": "KLSVHVTAL", "peptide exchange yield": "> 75"},
      {"binder": "LLDTTQKYL", "peptide exchange yield": "> 75"},
      {"binder": "FLPRKFPSL", "peptide exchange yield": "> 75"},
      {"binder": "LLPDPLYSL", "peptide exchange yield": "20 to 50"},
      {"binder": "TLWYVPLSL", "peptide exchange yield": "> 75"},
      {"binder": "SIPDTIASV", "peptide exchange yield": "50 to 75"},
      {"binder": "ALFAAGANV", "peptide exchange yield": "50 to 75"},
      {"binder": "TLLHFLAEL", "peptide exchange yield": "> 75"},
      {"binder": "ILDEGHILQL", "peptide exchange yield": "> 75"},
      {"binder": "VLNEYFHNV", "peptide exchange yield": "> 75"},
      {"binder": "FLNLFNHTL", "peptide exchange yield": "> 75"},
      {"binder": "KLLELQELVL", "peptide exchange yield": "> 75"},
      {"binder": "GILSFLPVL", "peptide exchange yield": "50 to 75"},
      {"binder": "LLSEIEEHL", "peptide exchange yield": "> 75"},
      {"binder": "HLIGWTAFL", "peptide exchange yield": "> 75"},
      {"binder": "NMMSGISSV", "peptide exchange yield": "50 to 75"},
      {"binder": "SAAEPTPAV", "peptide exchange yield": "50 to 75"},
      {"binder": "LLSNTVSTL", "peptide exchange yield": "50 to 75"},
      {"binder": "HLDQIFQNL", "peptide exchange yield": "20 to 50"}
    ]}
  ]
}
